Data on 2 molecules can be found in PMC9997659, “TLN1 contains a cancer-associated cassette exon that alters talin-1 mechanosensitivity” (The Journal of Cell Biology, 2023).

“And” between values parts separate entries of the source, which are not always exact repeats. Equal entries are not always repeated.

Test [1] has as its target Human talin-1 R1R2-17b (residues 482-786 + additional 17 residues of exon 17b) (human) (UniProt Q9Y490). The test is described as follows: SEC; analytical gel filtration, Superdex 200 Increase 10/300 GL, run at room temperature; VD1 preincubated with talin R1R2 at a 3:1 ratio for 1 h at 37°C; 100 µl, 100-400 µM protein. In general terms: In gel filtration, larger molecules generally elute earlier.

For test [2], the target named is T1, Human talin-1 R1R2-WT (residues 482-786) (human, UniProt Q9Y490 482-786).
T1 construct: talin-1 (TLN1), human, rod domains R1 and R2, residues 482-786 of the 2,541 amino acid protein; codon optimized synthetic gene in pET151; also called wild-type R1R2; talin R1R2-WT; source: E. coli BL21(DE3)*, purified (Nickel-NTA, TEV cleavage, HiTrap Q)
T1 sequence (Q9Y490 482-786): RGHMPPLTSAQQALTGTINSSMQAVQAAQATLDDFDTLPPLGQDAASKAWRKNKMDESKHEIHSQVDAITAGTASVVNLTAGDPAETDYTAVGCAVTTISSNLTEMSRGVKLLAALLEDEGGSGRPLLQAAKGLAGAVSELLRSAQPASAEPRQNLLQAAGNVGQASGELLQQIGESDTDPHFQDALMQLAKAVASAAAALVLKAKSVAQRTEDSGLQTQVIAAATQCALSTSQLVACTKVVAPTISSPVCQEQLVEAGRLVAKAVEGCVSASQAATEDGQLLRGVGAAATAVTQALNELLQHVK
The test is described as follows: NMR titration; 1H,15N TROSY spectra of 100 µM R1R2 alone and with 300 µM RIAM peptide; 50 mM NaCl, 15 mM NaH2PO4, 6 mM Na2HPO4, 2 mM DTT, pH 6.5, 298K. As to conditions: both partners purified.

As for “Vinculin domain 1 (VD1) (from UniProt P18206 1-258) (domain or fragment)”, in test [1], the stoichiometry N (vinculin per talin) was 2 and 3.

B1: RIAM peptide (residues 4-30) (peptide)
peptide: SEDIDQMFSTLLGEMDLLTQSLGVDTC
notes: RIAM (Rap1-effector), residues 4-30 as printed; source: synthetic peptide (GLBiochem)
In the case of B1, in test [2], the binding result is listed as “binds”.
